Patent US20100255008A1 (Hoffmann-La Roche, published 2010)
Residue numbers refer to the chain shown, from its start.

T1: human Flag-tagged soluble TWEAK (amino acids 106-249) (human, UniProt O43508 106-249)
T1 construct: the tag is put first here only by convention; also called Human TWEAK; not shown: Flag tag
T1 sequence (looked up): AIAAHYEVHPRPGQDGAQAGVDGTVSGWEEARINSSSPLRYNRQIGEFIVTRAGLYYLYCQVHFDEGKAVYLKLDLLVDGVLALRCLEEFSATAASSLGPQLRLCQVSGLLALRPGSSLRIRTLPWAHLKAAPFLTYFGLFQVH

T2: Human recombinant soluble TWEAK (human, UniProt O43508 99-249, limits assumed)
T2 sequence (looked up): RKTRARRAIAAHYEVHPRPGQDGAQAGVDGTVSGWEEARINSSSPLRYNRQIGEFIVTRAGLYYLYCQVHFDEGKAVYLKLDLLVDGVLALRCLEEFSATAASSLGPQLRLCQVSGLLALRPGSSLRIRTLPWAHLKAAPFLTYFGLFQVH

T3: Biotinylated human soluble TWEAK (human, UniProt O43508 99-249, limits assumed, biotinylated (sites not given))
T3 construct: also called Human TWEAK
T3 sequence (looked up): T2 sequence (looked up)

B1: TW212 (antibody)
VL: DIVLTQSPAYLTMSPGQTTTISCKASQSVSIGPIHLMHWYQQKPGQPPRLLIYGASNPESGVPARFSGSGSGTDFTLTIHPVEADDAATYFCQQGKESPRTFGPGTKLEITRADAKPTVSIFPPSSEQLGTGSATLVCFVNNFYPKDINVKWKVDGSEKRDGVLQSVTDQDSKDSTYSLSSTLSLTKADYERHNLYTCEVTHKTSTAAIVKTLNRNEC
VH: QVQLQESGPGLLKPAQSLSLTCTVTGYSIRSGYWWSWIRQQPGKGLEWMGQIYNKGNTDNNPSLKSQITMTVDTSKNQFFLRLRSVTTEDTAVYYCARVFWDDAYFDVWGQGIQVTVSSATTTAPSVYPLAPACDSTTSTTNTVTLGCLVKGYFPEPVTVSWNSGALTSGVHTFPSVLHSGLYSLSSSVTVPSSTWPSQTVTCNVAHPASSTKVDKKIVPGDGSGCKPCTCPGPEVSSVFIFPPKPKDVLTISLSPKVTCVVVDISQDDPEVQFSWFIDGKEVHTAVTQPREEQFNSTYRMVSVLPILHQDWLNGKEFKCKVNSPAFPVPIEKTISKRRGQLQVPQVYTMPPPKEQLTQSQVSLTCMIKGFYPEDIDVAWQKNGQPEQSFKNTPPVLDTDETYFLYSKLDVKKDDWEKGDTFTCSVVHEALHNHHTEKTLSQRPGK
notes: Armenian hamster monoclonal antibody; also called Antibody 212
B2: Antibody 15 (antibody, V domains shown)
VH: QVQLQESGPGLVKPSETLSLTCAVSGYSIRSGYWWSWIRQPPGKGLEWIGQIYNKGNTDNNPALKSRVTISVDTSKNQFSLKLSSVTAADTAVYYCARVFWDDAYFDVWGQGTMVTVSS
VL: EIVLTQSPATLSLSPGERATLSCKASQSVSIGPIHLMHWYQQKPGQAPRLLIYGASNPESGIPARFSGSGSGTDFTLTISSLEPEDFAVYYCQQGKESPRTFGQGTKLEIK
B3: Antibody 23 (antibody, V domains shown)
VH: B2 VH with A23T
VL: B2 VL with A9G, A64D, S81R
B4: Antibody 20 (antibody, V domains shown)
VH: B2 VH with P41Q, N61S, A63S, R67Q
VL: B2 VL
B5: Antibody 26 (antibody, V domains shown)
VH: B2 VH with P41Q, N61S, A63S, R67Q
VL: B2 VL with A9G, A64D, S81R
B6: Antibody 22 (antibody, V domains shown)
VH: B2 VH with N61S, A63S
VL: B2 VL with A9G, A64D, S81R
B7: Antibody 17 (antibody, V domains shown)
VH: B2 VH with A23T
VL: B2 VL
B8: Antibody 18 (antibody, V domains shown)
VH: B2 VH with A23T, N61S, A63S
VL: B2 VL
B9: Antibody 24 (antibody, V domains shown)
VH: B2 VH with A23T, N61S, A63S
VL: B2 VL with A9G, A64D, S81R
B10: Antibody 21 (antibody, V domains shown)
VH: B2 VH
VL: B2 VL with A9G, A64D, S81R
B11: Antibody 19 (antibody, V domains shown)
VH: B2 VH with P41Q, R67Q
VL: B2 VL
B12: Antibody 16 (antibody, V domains shown)
VH: B2 VH with N61S, A63S
VL: B2 VL
B13: Antibody 25 (antibody, V domains shown)
VH: B2 VH with P41Q, R67Q
VL: B2 VL with A9G, A64D, S81R
B14: TW202 (antibody, V domains shown)
VH: QLQLQESGLGLVKPSQSLTLTCSVTGFSITTPDYSWHWIRQLPGQTLEWMGFLYYEGDTYYNPSLKSRISIARDASKNQFFLQLKAVTTEDTATYFCARRKYSGYGNWFAYWGQGTLVTVSL
VL: QPVLTQSPSASASLRASVKLTCTLSSQHSTYYIEWYQQRPDKAPKYVMYLDSDGSHIKGDGIPDRFSGSSSGAHRYLSISNLQPEDEAIYHCGVYDSTAGAVFGSGTQLTVLG
notes: Armenian hamster monoclonal antibody; also called Antibody 202
B15: TW205 (antibody, V domains shown)
VH: B14 VH with L2I, Q3H, L42F, A86S, A98V, L117Q, L122S
VL: B14 VL with S7A, R39H, K45R, L50V, I62V, H74R
notes: Armenian hamster monoclonal antibody; also called Antibody 205
B16: TW212chi (antibody, human IgG1)
light: DIVLTQSPAYLTMSPGQTTTISCKASQSVSIGPIHLMHWYQQKPGQPPRLLIYGASNPESGVPARFSGSGSGTDFTLTIHPVEADDAATYFCQQGKESPRTFGPGTKLEITRTVAAPSVFIFPPSDEQLKSGTASVVCLLNNFYPREAKVQWKVDNALQSGNSQESVTEQDSKDSTYSLSSTLTLSKADYEKHKVYACEVTHQGLSSPVTKSFNRGEC
heavy: not shown

The binders below were run against T1, human Flag-tagged soluble TWEAK (amino …) (assay: receptor interaction ELISA: antibody pre-incubated with human Flag-tagged soluble TWEAK, binding to coated human Fn14:Fc).
Procedure: Blocking of human TWEAK/human Fn14 interaction was shown by receptor interaction ELISA. 96-well Maxisorp® plates (Nunc) were coated with 100 μl 1 μg/ml human Fn14:Fc (extracellular domain of human Fn14 (amino acids 1-75) fused to Fc portion of human IgG1) in PBS per well for 1.5 h at room temperature and blocked with a solution of 5% FBS in PBS for 30 minutes at room temperature under shaking. […] Wells were filled with 100 μl of anti-FLAG-HRP detection antibody, diluted 1:5000 in blocking buffer, and incubated for 1 h at room temperature. After four more wash steps, the signal was developed by addition of 100 μl 3,3,5,5-Tetramethylbenzidine (TMB) solution for approximately ten minutes. The reaction was stopped by adding 100 μl of 1 N HCl, and absorbance measured at 450 nm (reference wavelength 620 nm).

Row | Binder | IC50 [µg/mL]
1 | B1 | 0.0151
2 | B2 | 0.014
3 | B3 | 0.013
4 | B4 | 0.035
5 | B5 | 0.094
6 | B6 | 0.017
7 | B7 | 0.014
8 | B8 | 0.016
9 | B9 | 0.02
10 | B10 | 0.012
11 | B11 | 0.015
12 | B12 | 0.022
13 | B13 | 0.042
14 | B14 | 0.0092
15 | B15 | 0.0088
16 | B16 | 0.0134

What follows are binders tested against T2, Human recombinant soluble TWEAK (assay: cell-based or functional assay).

Row | Binder | IL-8 Secretion IC50 [µg/mL]
17 | B1 | 0.112
18 | B2 | 0.141
19 | B3 | 0.242
20 | B4 | 0.401
21 | B5 | 0.222
22 | B6 | 0.249
23 | B7 | 0.146
24 | B8 | 0.189
25 | B9 | 0.165
26 | B10 | 0.224
27 | B11 | 0.253
28 | B12 | 0.163
29 | B13 | 0.475
30 | B14 | 0.146
31 | B15 | 0.151

What follows are binders tested against T3, Biotinylated human soluble TWEAK (assay: Biacore SPR, biotinylated human soluble TWEAK on streptavidin sensor, antibody 100 nM as analyte, 25° C.).
Procedure: A Biacore 2000 instrument was used with a Biacore streptavidin coated sensor mounted into the system. The system buffer HBS-ET (10 mM HEPES pH 7.4, 150 mM NaCl, 1 mM EDTA, 0.05% Tween® 20) was used at a flow rate of 100 μl/min. The sample buffer was the system buffer. Biotinylated human soluble TWEAK and biotinylated murine soluble TWEAK was immobilized on different flow cells on the SA sensor at 150 RU each. The flow cell FC1 was used as a blank reference cell. Each antibody was injected into the system as an analyte at 100 nM at 100 μl/min for 2 min association time. The dissociation of the immunecomplexes were monitored for 5 min. The sensor surface was washed with HBS-ET for 10 seconds and regenerated using 2×2 minutes injections with 10 mM glycine pH 2.25. This procedure was done at 25° C. The kinetically rate limiting step of the complex dissociation phase in the interval [240 s-300 s] was taken to calculate the dissociation rate kd [1/s] (Biacore Evaluation Software 4.0). According to the equation t1/2 diss=ln(2)/(60×kd), the half-life of each immunocomplexe in minutes was calculated.

Row | Binder | t/2 diss [min] 25° C. [min] | t/2 diss. [min] 25° C. [min]
32 | B1 | 20 | 
33 | B2 |  | 18
34 | B3 |  | 17
35 | B4 |  | 15
36 | B5 |  | 16
37 | B6 |  | 14
38 | B7 |  | 18
39 | B8 |  | 16
40 | B9 |  | 15
41 | B10 |  | 17
42 | B11 |  | 17
43 | B12 |  | 15
44 | B13 |  | 17
45 | B14 | 53 | 
46 | B15 | 30 | 
47 | B16 | 13 | 
